2 substances from article PMC10229695 can be followed below.

By IC50 is commonly meant the midpoint of a concentration-inhibition curve.

Series [1] has as its system NLRP3 WT (human). Put plainly: competition pulldown (streptavidin beads, western blot). The note with it: elution from biotinylated mtDNA beads, EMSA and pulldown: 50 mM Tris pH 7.4, 100 mM NaCl, 2 mM MgCl2, 12% glycerol, 4 C overnight (EMSA plus 2e-5 mg/ml salmon sperm DNA, 1e-5 uM ox-mtDNA), Fig …. (Mobility shift assays separate free from complexed probe on a gel.)
Series [2] deals with NLRP3 L266F (NOMID, C790T) (human). Described as above. Particulars: elution from biotinylated mtDNA beads; oxidized guanine (8-oxoguanine); EMSA and pulldown: 50 mM Tris pH 7.4, 100 mM NaCl, 2 mM MgCl2, 12% glycerol, 4 C overnight (EMSA plus 2e-5 mg/ml salmon sperm DNA, 1e-5 uM ox-mtDNA); Fig ….

Take “non-oxidized mtDNA competitor (unlabeled)”: the IC50 in series [1] (R2 0.98, abstract prints 4 nM) stood at 4.8 nM.

In the case of ox-mtDNA competitor (unlabeled), the IC50 in series [2] amounted to 8.1 nM; in series [1] (poor fit, R2 0.6, text prints 247 nM, oxidized guanine (8-oxoguanine)), 247 nM.
